The results in this text go back to article PMC13456277, “Direct interaction between RSV polymerase L and active Rab11a mediates viral ribonucleoprotein transport to assembly sites” (PLOS Pathogens, 2026).

The target in test [1] is RSV L-Twin-Strep-tag + P-his (human respiratory syncytial virus, UniProt P28887 1-2165; P03421 1-241). Kind of test: BLI. A general note: Biolayer interferometry detects binding as a change in optical thickness at a sensor tip.
Test [2] has as its target T1, RSV L-Twin-Strep-tag + P-his (human respiratory syncytial virus, UniProt P28887 1-2165; P03421 1-241).
T1 construct: RSV large polymerase L, codon-optimized; RSV phosphoprotein P, codon-optimized; L as in m21; also called L-P^-his; L-P complexes; source: Sf9, baculovirus, purified (Strep-Trap XT, SEC Superose 6); not shown: Twin-Strep-tag, C-terminal, kept; His6, C-terminal, kept
The test is described as follows: BLI; Octet RED 384, 25°C; L-Twin-Strep-tag + P-his loaded on Ni-NTA sensors; two-fold dilutions of GST-Rab11a (with 1 mM GTP) or GST-Rab11a CA from 50 nM to 3.2 µM; association 60 min to steady state, dissociation 5 min; apparent KD from steady-state responses, one-site model, double referenced. The note with it: both partners purified.

Changes are numbered by the printed parent chain. In names and notes the source's numbering stands.

B1: GST-Rab11a(Q70L) CA (natural protein)
chain: MGTRDDEYDYLFKVVLIGDSGVGKSNLLSRFTRNEFNLESKSTIGVEFATRSIQVDGKTIKAQIWDTAGLERYRAITSAYYRGAVGALLVYDIAKHLTYENVERWLKELRDHADSNIVIMLVGNKSDLRHLRAVPTDEARAFAEKNGLSFIETSALDSTNVEAAFQTILTEIYRIVSQKQMSDRRENDMSPSNNVVPIHVPPTTENKPKVQCCQNI
Consider B1, for which, in test [1], the Kd turned out to be 1200 nM.

B2: GST-Rab11a WT (natural protein, human, UniProt P62491 1-216, looked up)
chain: B1 chain with L70Q
notes: human Rab11a; pGEX 4T-3; Used with or without 1 mM GTP; also called GST-Rab11a wild-type; source: E. coli BL21, purified (Glutathione Sepharose 4B, SEC Superdex 200); not shown: GST, N-terminal, kept
On to B2, for which, in test [2], the Kd was 300 nM.
